In test [1] the target is EphA2 extracellular domain fused to the Fc portion of an antibody (EphA2 Fc). Nature of the test: ELISA, inhibition of ephrin-A5 AP binding to immobilized EphA2 Fc; representative experiment; concentrations in nM. On the technique in general: ELISA stands for enzyme-linked immunosorbent assay.
Test [2] has the same target. Nature of the test: competition ELISA: inhibition of ephrin-A5 AP binding to immobilized EphA2 Fc; average ± SE (number of experiments).
Test [3] shares this target. The test can be described thus: competition ELISA: inhibition of ephrin-A5 AP binding to EphA2 Fc.
Test [4] has the same target. Nature of the test: ELISA, inhibition of ephrin-A5 AP binding to immobilized EphA2 Fc; representative experiment.

Non-standard residues stand in square brackets, D forms with d. No end group written: not given here. *: point of attachment. Biotin = O=C1N[C@H]2[C@H](CS[C@H]2CCCCC(=O)*)N1; βAla = NCCC(=O)O

Chain of EphA2 extracellular domain fused to the Fc portion of an antibody (EphA2 Fc) (P29317 whole entry, the tested form may be a part): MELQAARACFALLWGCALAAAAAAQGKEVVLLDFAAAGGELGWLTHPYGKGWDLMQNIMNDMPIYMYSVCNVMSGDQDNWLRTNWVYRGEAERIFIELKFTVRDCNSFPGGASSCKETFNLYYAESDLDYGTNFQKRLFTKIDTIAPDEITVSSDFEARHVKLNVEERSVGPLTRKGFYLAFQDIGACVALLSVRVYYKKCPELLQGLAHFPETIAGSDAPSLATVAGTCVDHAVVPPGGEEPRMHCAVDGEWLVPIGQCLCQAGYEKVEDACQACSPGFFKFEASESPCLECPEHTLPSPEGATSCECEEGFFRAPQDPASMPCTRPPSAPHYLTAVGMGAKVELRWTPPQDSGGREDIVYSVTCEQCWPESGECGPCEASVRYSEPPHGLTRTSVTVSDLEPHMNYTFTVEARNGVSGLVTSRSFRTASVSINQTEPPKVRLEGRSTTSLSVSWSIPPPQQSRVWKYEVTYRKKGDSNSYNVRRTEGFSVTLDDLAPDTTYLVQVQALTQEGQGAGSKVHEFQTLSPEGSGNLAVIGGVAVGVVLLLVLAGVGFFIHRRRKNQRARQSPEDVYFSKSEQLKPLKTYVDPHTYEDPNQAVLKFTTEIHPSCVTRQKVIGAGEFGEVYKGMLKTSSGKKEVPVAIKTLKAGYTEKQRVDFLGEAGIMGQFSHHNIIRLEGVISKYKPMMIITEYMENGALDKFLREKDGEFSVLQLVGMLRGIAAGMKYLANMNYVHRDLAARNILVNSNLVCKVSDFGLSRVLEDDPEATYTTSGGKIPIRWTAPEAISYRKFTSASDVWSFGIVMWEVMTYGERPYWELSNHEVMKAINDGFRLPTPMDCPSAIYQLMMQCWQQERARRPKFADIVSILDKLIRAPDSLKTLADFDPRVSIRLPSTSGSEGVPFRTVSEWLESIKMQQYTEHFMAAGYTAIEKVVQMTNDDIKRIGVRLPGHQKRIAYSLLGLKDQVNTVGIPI

As to [βAla]WLAYPDSVPYR [βA-WLA-YR], the values for the IC50 in test [1] and in test [2] were 360 nM and 390 nM, respectively.
As for [βAla]WLAYPDSVPYGSGK(Biotin) [βA-WLA-YGSGK-bio], the IC50 in test [2] worked out at 330 nM.
The molecule [βAla]WLAYPDSVPYK(Biotin) [βA-WLA-YK-bio] registered an IC50 in test [2] of 730 nM.
On the same count and under the same terms, in the case of [βAla]WLAYPDSVPYSK [βA-WLA-YSK] it was 380 nM.
On to WLAYPDSVPM-NH2 [WLAam], for which, in test [3], the fold improvement in potency against YSA1-10am turned out to be 2 fold. Also, the results for the IC50 in test [1] and in test [2] were 1400 nM and 1500 nM, respectively.
For the molecule [βAla]WLAYPDSVPYGSK(Biotin) [βA-WLA-YGSK-bio], the IC50 in test [2] is 400 nM.
[βAla]WLAYPDSVPYSPK(Biotin) [βA-WLA-YSPK-bio]: the IC50 in test [2] stood at 62 nM.
The molecule [βAla]WLAYPDSVPM-NH2 [βA-WLAam] had a fold increase in potency against WLAam in test [3] of 2 fold. The IC50 in test [4] was 680 nM; in test [2], 840 nM.

As usually defined, the IC50 is the point on the concentration scale where inhibition reaches its midpoint.
